# From the supplement of paper PMC6757056
# ± gives the standard deviation of the averaged measurements.
# B1: library; a variant is named by its letters at N, in order (parent)
# chain: GCUGUCACCGAGAAACUGUGAAGUAUAUCUUAAACCUGGGCACUUAAAAGAUAUAUGGAGUUAGUAGUGCAACCUGCUCGGUCUGAUGAGUCCNNNNNNGGACGAAACAGC
# Key:
# cyclic di-GMP [1] = variants of: B1; experiment: FACS-Seq fitted mean relative fluorescence mCherry/BFP without ligand (log10 relative fluorescence); HEK293T; ligand: cyclic di-GMP (c-di-GMP-II aptamer); higher = higher reporter protein expression; conditions: ligand present: no
# In short: (§1)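 To measure fluorescence, a normal distribution was fitted to read counts across sorted bins. The reporter libraries were HEK293T cells transduced by lentivirus with mCherry under ribozyme-switch control and an EF1α-BFP marker, enriched and then kept with or without ligand for 48 h. Sorting used 6 mCherry/BFP bins, and bin genomic DNA was PCR-amplified and sequenced on MiSeq. Fitted means of log10(mCherry/BFP) were scaled to five spiked-in control ribozymes.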
# cyclic di-GMP [2] = variants of: B1; experiment: normalized RNA/DNA level without ligand (relative to sTRSVctl = 100) (log10 (% of sTRSVctl)); HEK293T; ligand: cyclic di-GMP (c-di-GMP-II aptamer); higher = less ribozyme self-cleavage, higher mRNA level; conditions: reporter: mCherry (pCS4076), ligand present: no
# Description: (§2)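 Hammerhead (sTRSV) ribozyme switch libraries with a ligand aptamer grafted on stem I and a randomized N4-6 loop II, cloned into the 3' UTR of mCherry and transiently transfected into HEK293T cells; RNA-Seq 72 h post transfection with ligand added 1 h before transfection; RNA read count / plasmid DNA read count normalized to the non-cleaving sTRSVctl (x100), log10; sequences with >100 DNA reads. FACS-Seq: lentiviral library sorted into 6 bins after 48 h ligand, log-normal fit mean of mCherry/BFP scaled to controls. Printed sequences are partial switch sequences.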
# cyclic di-GMP [3] = variants of: B1; experiment: FACS-Seq fitted mean relative fluorescence mCherry/BFP with ligand (log10 relative fluorescence); HEK293T; ligand: cyclic di-GMP (c-di-GMP-II aptamer); ligand concentration (+) FACS-Seq: 1 mM; higher = higher reporter protein expression; conditions: ligand present: yes
# In short: as §1
# cyclic di-GMP [4] = variants of: B1; experiment: normalized RNA/DNA level with ligand (relative to sTRSVctl = 100) (log10 (% of sTRSVctl)); HEK293T; ligand: cyclic di-GMP (c-di-GMP-II aptamer); ligand concentration (+) RNA-Seq: 1 mM; higher = less ribozyme self-cleavage, higher mRNA level; conditions: reporter: mCherry (pCS4076), ligand present: yes
# Description: as §2
Variant,FACS-Seq fitted mean (log10) (cyclic di-GMP [1]),normalized RNA/DNA level without ligand (log10) (cyclic di-GMP [2]),FACS-Seq fitted mean (log10) (cyclic di-GMP [3]),normalized RNA/DNA level with ligand (log10) (cyclic di-GMP [4])
GCUGUCACCGAGAAACUGUGAAGUAUAUCUUAAACCUGGGCACUUAAAAGAUAUAUGGAGUUAGUAGUGCAACCUGCUCGGUCUGAUGAGUCCCCCGUCGGACGAAACAGC [CCCGUC],-0.648 ± 0.28,1.73 ± 0.061,-0.317 ± 0.1,1.87 ± 0.16
GCUGUCACCGAGAAACUGUGAAGUAUAUCUUAAACCUGGGCACUUAAAAGAUAUAUGGAGUUAGUAGUGCAACCUGCUCGGUCUGAUGAGUCCGCCGAAGGACGAAACAGC [GCCGAA],-0.291 ± 0.03,1.45 ± 0.11,-0.0327 ± 0.018,1.72 ± 0.091
GCUGUCACCGAGAAACUGUGAAGUAUAUCUUAAACCUGGGCACUUAAAAGAUAUAUGGAGUUAGUAGUGCAACCUGCUCGGUCUGAUGAGUCCGCGCUAGGACGAAACAGC [GCGCUA],-0.702 ± 0.086,1.65 ± 0.043,-0.433 ± 0.079,1.78 ± 0.17
GCUGUCACCGAGAAACUGUGAAGUAUAUCUUAAACCUGGGCACUUAAAAGAUAUAUGGAGUUAGUAGUGCAACCUGCUCGGUCUGAUGAGUCCAGGCAGGGACGAAACAGC [AGGCAG],-0.6414 ± 0.0033,1.758 ± 0.0064,-0.399 ± 0.084,1.83 ± 0.097
GCUGUCACCGAGAAACUGUGAAGUAUAUCUUAAACCUGGGCACUUAAAAGAUAUAUGGAGUUAGUAGUGCAACCUGCUCGGUCUGAUGAGUCCACGGGAGGACGAAACAGC [ACGGGA],-0.467 ± 0.019,1.42 ± 0.16,-0.161 ± 0.068,1.58 ± 0.075
GCUGUCACCGAGAAACUGUGAAGUAUAUCUUAAACCUGGGCACUUAAAAGAUAUAUGGAGUUAGUAGUGCAACCUGCUCGGUCUGAUGAGUCCUUUCUAGGACGAAACAGC [UUUCUA],-0.278 ± 0.011,1.75 ± 0.065,-0.016 ± 0.035,1.88 ± 0.11
GCUGUCACCGAGAAACUGUGAAGUAUAUCUUAAACCUGGGCACUUAAAAGAUAUAUGGAGUUAGUAGUGCAACCUGCUCGGUCUGAUGAGUCCGCUGGUGGACGAAACAGC [GCUGGU],-0.0949 ± 0.014,1.6 ± 0.057,0.119 ± 0.16,1.76 ± 0.099
GCUGUCACCGAGAAACUGUGAAGUAUAUCUUAAACCUGGGCACUUAAAAGAUAUAUGGAGUUAGUAGUGCAACCUGCUCGGUCUGAUGAGUCCACAGAAGGACGAAACAGC [ACAGAA],-0.5622 ± 0.0028,1.29 ± 0.15,-0.287 ± 0.057,1.47 ± 0.071
GCUGUCACCGAGAAACUGUGAAGUAUAUCUUAAACCUGGGCACUUAAAAGAUAUAUGGAGUUAGUAGUGCAACCUGCUCGGUCUGAUGAGUCCAUUAGCGGACGAAACAGC [AUUAGC],-0.0321 ± 0.09,1.6567 ± 0.0015,0.226 ± 0.11,1.76 ± 0.16
GCUGUCACCGAGAAACUGUGAAGUAUAUCUUAAACCUGGGCACUUAAAAGAUAUAUGGAGUUAGUAGUGCAACCUGCUCGGUCUGAUGAGUCCACAAGUGGACGAAACAGC [ACAAGU],-0.519 ± 0.012,1.42 ± 0.039,-0.19187 ± 0.00017,1.63 ± 0.13
GCUGUCACCGAGAAACUGUGAAGUAUAUCUUAAACCUGGGCACUUAAAAGAUAUAUGGAGUUAGUAGUGCAACCUGCUCGGUCUGAUGAGUCCCUCUCUGGACGAAACAGC [CUCUCU],-0.0993 ± 0.11,1.63 ± 0.06,0.163 ± 0.0032,1.79 ± 0.13
GCUGUCACCGAGAAACUGUGAAGUAUAUCUUAAACCUGGGCACUUAAAAGAUAUAUGGAGUUAGUAGUGCAACCUGCUCGGUCUGAUGAGUCCAAAAGCGGACGAAACAGC [AAAAGC],0.0679 ± 0.01,1.58 ± 0.045,0.227 ± 0.045,1.73 ± 0.089
GCUGUCACCGAGAAACUGUGAAGUAUAUCUUAAACCUGGGCACUUAAAAGAUAUAUGGAGUUAGUAGUGCAACCUGCUCGGUCUGAUGAGUCCCGUUCAGGACGAAACAGC [CGUUCA],-0.111 ± 0.098,1.39 ± 0.12,0.115 ± 0.005,1.59 ± 0.12
